Measured values: article PMC5656587, “Structure determination and activity manipulation of the turfgrass ABA receptor FePYR1” (Scientific Reports, 2017)
Positions count from the first letter of the chain named. In names and notes the source's numbering stands. Values belong to the molecule of their own block, whether it stands above or below them.

Legend:
AtPYR1 = target: T1, AtPYR1 (Arabidopsis thaliana, UniProt O49686); test: ABA binding assay in supplement (method not given); details: affinity reported comparable to FePYR1
T1 construct: gene PYR1; homodimer
T1 sequence (O49686 9-182): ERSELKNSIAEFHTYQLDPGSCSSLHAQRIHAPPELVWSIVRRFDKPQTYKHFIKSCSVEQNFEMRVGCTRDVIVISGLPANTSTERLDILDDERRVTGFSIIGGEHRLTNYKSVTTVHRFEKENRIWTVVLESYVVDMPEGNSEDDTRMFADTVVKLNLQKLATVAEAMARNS

FePYL1 with AtHAB1 = target: T2, FePYL1 with AtHAB1 (Festuca elata, UniProt A0A2D1UXN6); test: AlphaScreen, ABA-dependent receptor-PP2C interaction; format: binding
T2 construct: H6-SUMO-FePYL1 and biotin-MBP-AtHAB1 (172-511), E. coli; tags kept; with Protein phosphatase 2C 16 (HAB1, Arabidopsis thaliana)
T2 sequence (A0A2D1UXN6 1-204): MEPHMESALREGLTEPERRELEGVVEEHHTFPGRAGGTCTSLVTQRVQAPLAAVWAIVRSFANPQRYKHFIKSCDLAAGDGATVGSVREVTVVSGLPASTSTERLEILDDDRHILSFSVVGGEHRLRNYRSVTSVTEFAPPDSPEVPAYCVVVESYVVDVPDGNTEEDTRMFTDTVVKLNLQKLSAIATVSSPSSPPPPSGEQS
T2 sequence (Q9CAJ0 172-511 partner): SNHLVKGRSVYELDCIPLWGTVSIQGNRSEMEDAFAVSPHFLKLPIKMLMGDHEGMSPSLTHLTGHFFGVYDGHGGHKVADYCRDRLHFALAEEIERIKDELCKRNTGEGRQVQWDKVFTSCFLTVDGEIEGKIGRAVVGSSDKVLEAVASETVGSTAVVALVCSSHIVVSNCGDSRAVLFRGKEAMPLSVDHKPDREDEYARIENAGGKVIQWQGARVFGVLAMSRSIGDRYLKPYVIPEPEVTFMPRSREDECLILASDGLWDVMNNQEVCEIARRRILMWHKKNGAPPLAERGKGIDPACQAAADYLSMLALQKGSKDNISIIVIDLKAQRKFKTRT
Excerpt: AlphaScreen, ABA-dependent receptor-PP2C interaction on FePYL1 with AtHAB1 | EC50 values of FePYL1, FePYR1, ZjPYL2 in interacting with AtHAB1

FePYR1-ABA-AtHAB1 = target: T3, FePYR1-ABA-AtHAB1 (Festuca elata, UniProt A0A2D1UXN2); test: as above; format: binding
T3 construct: H6-SUMO-FePYR1 and biotin-MBP-AtHAB1 (172-511), E. coli; tags kept for AlphaScreen; with Protein phosphatase 2C 16 (HAB1, Arabidopsis thaliana)
T3 sequence (A0A2D1UXN2 1-212): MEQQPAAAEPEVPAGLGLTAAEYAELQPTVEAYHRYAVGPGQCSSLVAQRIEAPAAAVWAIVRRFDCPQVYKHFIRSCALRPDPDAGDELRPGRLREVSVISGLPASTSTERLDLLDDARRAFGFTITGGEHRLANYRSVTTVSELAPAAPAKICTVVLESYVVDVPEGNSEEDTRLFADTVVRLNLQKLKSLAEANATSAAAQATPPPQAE
T3 sequence (Q9CAJ0 172-511 partner): T2 sequence (Q9CAJ0 172-511 partner)
Excerpt: AlphaScreen, ABA-dependent receptor-PP2C interaction on FePYR1-ABA-AtHAB1 | EC50 values of FePYL1, FePYR1, ZjPYL2 in interacting with AtHAB1

ZjPYL2 with AtHAB1 = target: T4, ZjPYL2 with AtHAB1 (Zoysia japonica, UniProt A0A2D1UXP2); test: as above; format: binding
T4 construct: H6-SUMO-ZjPYL2 and biotin-MBP-AtHAB1 (172-511), E. coli; tags kept; with Protein phosphatase 2C 16 (HAB1, Arabidopsis thaliana)
T4 sequence (A0A2D1UXP2 1-216): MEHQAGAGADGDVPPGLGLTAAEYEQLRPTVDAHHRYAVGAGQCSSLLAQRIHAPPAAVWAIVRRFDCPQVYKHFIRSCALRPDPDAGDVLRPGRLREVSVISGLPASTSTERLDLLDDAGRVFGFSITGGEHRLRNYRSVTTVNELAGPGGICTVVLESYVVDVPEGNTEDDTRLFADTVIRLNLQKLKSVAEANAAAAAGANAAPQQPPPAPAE
T4 sequence (Q9CAJ0 172-511 partner): T2 sequence (Q9CAJ0 172-511 partner)
Excerpt: AlphaScreen, ABA-dependent receptor-PP2C interaction on ZjPYL2 with AtHAB1 | EC50 values of FePYL1, FePYR1, ZjPYL2 in interacting with AtHAB1

AtPYR1 with AtHAB1 = target: T5, AtPYR1 with AtHAB1 (Arabidopsis thaliana, UniProt O49686); test: as above; format: binding
T5 construct: gene PYR1; H6-SUMO-AtPYR1 (9-182) and biotin-MBP-AtHAB1 (172-511), E. coli; tags kept; with Protein phosphatase 2C 16
T5 sequence (O49686 9-182): T1 sequence (O49686 9-182)
T5 sequence (Q9CAJ0 172-511 partner): T2 sequence (Q9CAJ0 172-511 partner)

[1] = target: the molecule itself; test: SEC; HPLC size-exclusion column chromatography with or without (+)-ABA; 43 kD protein marker
[2] = target: T6, biotin-MBP-tagged AtHAB1 (residues 172-511), Q9CAJ0; test: AlphaScreen; details: chain shown with the change, read off a plot
T6 chain: T2 sequence (Q9CAJ0 172-511 partner)

[3] = ABA (10 μM), parent: est. 12000
[4] = ABA (100 μM), parent: est. 8400
[5] = DMSO (no ABA), parent: est. 2200

Molecule: CC1=CC(=O)CC(C)(C)C1(O)/C=C/C(C)=C\C(=O)O (stereo in doubt) [(+)-ABA]
- ABA binding assay in supplement (method not given) (AtPYR1): the binding affinity with ABA ... are comparable between these two ABA receptors
- EC50 (FePYL1 with AtHAB1): 0.671 µM
- EC50 (FePYR1-ABA-AtHAB1): 2.3 µM
- EC50 (ZjPYL2 with AtHAB1): 3.73 µM
- EC50 (AtPYR1 with AtHAB1): 7.36 µM

B1: AtPYR1 (size-exclusion chromatography, with or without ABA) (receptor, Arabidopsis, UniProt O49686 9-182, looked up)
chain: T1 sequence (O49686 9-182)
notes: Arabidopsis ABA receptor PYR1; also called AtPYR1-apo; source: E. coli, purified
- stoichiometry N [1]: 2

B5: H6-SUMO-tagged FePYR1 H132A (protein)
chain: T3 sequence (A0A2D1UXN2 1-212) with H132A
- response (photon counts) [2, 4]: 650

B7: H6-SUMO-tagged FePYR1 P105A (protein)
chain: T3 sequence (A0A2D1UXN2 1-212) with P105A
- response (photon counts) ([2]; ABA (2 μM), parent: est. 6900): 1400
- response (photon counts) [2, 3]: 3300
- response (photon counts) [2, 4]: 5700

B8: H6-SUMO-tagged FePYR1 L104A (protein)
chain: T3 sequence (A0A2D1UXN2 1-212) with L104A
- response (photon counts) [2, 4]: 2500

B9: H6-SUMO-tagged FePYR1 A106S (protein)
chain: T3 sequence (A0A2D1UXN2 1-212) with A106S
- response (photon counts) [2, 4]: 2100

B10: H6-SUMO-tagged FePYR1 F178A (protein)
chain: T3 sequence (A0A2D1UXN2 1-212) with F178A
- response (photon counts) [2, 4]: 2500

B13: H6-SUMO-tagged FePYR1 K72R (protein)
chain: T3 sequence (A0A2D1UXN2 1-212) with K72R
- response (photon counts) [2, 4]: 1300

B14: H6-SUMO-tagged FePYR1 N186A (protein)
chain: T3 sequence (A0A2D1UXN2 1-212) with N186A
- response (photon counts) ([2]; ABA (2 μM), parent: est. 6900): 1200
- response (photon counts) [2, 3]: 3900
- response (photon counts) [2, 4]: 5800

B15: H6-SUMO-tagged FePYR1 L185C (protein)
chain: T3 sequence (A0A2D1UXN2 1-212) with L185C
- response (photon counts) ([2]; ABA (5 μM), parent: est. 17000): 16000
- response (photon counts) [2, 5]: 2200

B17: H6-SUMO-tagged FePYR1 G103A (protein)
chain: T3 sequence (A0A2D1UXN2 1-212) with G103A
- response (photon counts) ([2]; ABA (2 μM), parent: est. 6900): 700
- response (photon counts) [2, 3]: 1800
- response (photon counts) [2, 4]: 2800

B18: H6-SUMO-tagged FePYR1 E111A (protein)
chain: T3 sequence (A0A2D1UXN2 1-212) with E111A
- response (photon counts) [2, 4]: 800

B19: H6-SUMO-tagged FePYR1 S102A (protein)
chain: T3 sequence (A0A2D1UXN2 1-212) with S102A
- response (photon counts) ([2]; ABA (2 μM), parent: est. 6900): 750
- response (photon counts) [2, 3]: 3000
- response (photon counts) [2, 4]: 5800

B20: H6-SUMO-tagged FePYR1 I75V (protein)
chain: T3 sequence (A0A2D1UXN2 1-212) with I75V
- response (photon counts) ([2]; ABA (5 μM), parent: est. 17000): 16000
- response (photon counts) [2, 5]: 2100

B21: H6-SUMO-tagged FePYR1 I75A (protein)
chain: T3 sequence (A0A2D1UXN2 1-212) with I75A
- response (photon counts) ([2]; ABA (5 μM), parent: est. 17000): 9600
- response (photon counts) [2, 5]: 2600

B23: H6-SUMO-tagged FePYR1 I127A (protein)
chain: T3 sequence (A0A2D1UXN2 1-212) with I127A
- response (photon counts) ([2]; ABA (5 μM), parent: est. 17000): 9500
- response (photon counts) [2, 5]: 2100

B24: H6-SUMO-tagged FePYR1 V182L (protein)
chain: T3 sequence (A0A2D1UXN2 1-212) with V182L
- response (photon counts) ([2]; ABA (5 μM), parent: est. 17000): 3300
- response (photon counts) [2, 5]: 2000

Results, then the molecule that gave them:

- response (photon counts) ([2]; ABA (2 μM), parent: est. 6900): 4100
- response (photon counts) [2, 3]: 8000
- response (photon counts) [2, 4]: 7500
B2: H6-SUMO-tagged FePYR1 E131A (protein)
chain: T3 sequence (A0A2D1UXN2 1-212) with E131A

- response (photon counts) ([2]; ABA (5 μM), parent: est. 17000): 18000
- response (photon counts) [2, 5]: 1900
B3: H6-SUMO-tagged FePYR1 E131D (protein)
chain: T3 sequence (A0A2D1UXN2 1-212) with E131D

- response (photon counts) ([2]; ABA (2 μM), parent: est. 6900): 600
- response (photon counts) [2, 3]: 2300
- response (photon counts) [2, 4]: 3900
B4: H6-SUMO-tagged FePYR1 R133A (protein)
chain: T3 sequence (A0A2D1UXN2 1-212) with R133A

- response (photon counts) ([2]; ABA (2 μM), parent: est. 6900): 2600
- response (photon counts) [2, 3]: 4900
- response (photon counts) [2, 4]: 9000
B6: H6-SUMO-tagged FePYR1 E160A (protein)
chain: T3 sequence (A0A2D1UXN2 1-212) with E160A

- response (photon counts) ([2]; ABA (5 μM), parent: est. 17000): 15000
- response (photon counts) [2, 5]: 2000
B11: H6-SUMO-tagged FePYR1 H73P (protein)
chain: T3 sequence (A0A2D1UXN2 1-212) with H73P

- response (photon counts) ([2]; ABA (5 μM), parent: est. 17000): 17000
- response (photon counts) [2, 5]: 2200
B12: H6-SUMO-tagged FePYR1 I127V (protein)
chain: T3 sequence (A0A2D1UXN2 1-212) with I127V

- response (photon counts) [2, 4]: 1200
B16: H6-SUMO-tagged FePYR1 K72A (protein)
chain: T3 sequence (A0A2D1UXN2 1-212) with K72A

- response (photon counts) ([2]; ABA (5 μM), parent: est. 17000): 18000
- response (photon counts) [2, 5]: 2300
B22: H6-SUMO-tagged FePYR1 L185A (protein)
chain: T3 sequence (A0A2D1UXN2 1-212) with L185A
